Experimental data reported in patent US11421026B2, “Antibodies that bind human cannabinoid 1 (CB1) receptor” (BIRD ROCK BIO, Inc., priority 2015, dated 2022).

B1: 36E12B6C2: hybridoma-derived anti-CB1 mAb; HC variable SEQ ID NO: 18, LC variable SEQ ID NO: 22 (antibody, listed as Mus sp., V domains shown)
VH: QVQLQQSGAELVRPGSSVKISCKASGYEFSYYWMNWVKQRPGQGLQWIGQIYPGDGDTNYNGKFKGKATLTADKSSSTAYMHLTSLTSEDSAVYFCARSGGNPFAFWGQGTLVTVSA
VL: DIQMTQTSSSLSASLGDRVTFSCRASQDISNYLNWYQQKPDGTVKLLIYYTSRLHSGVTSRFRGSGSGTDYSLTISNLEQEDVATYFCQQGHTLPWSFGGGTKLEIK
B2: PA13R3-P1C4: phage-derived chimeric anti-CB1 IgG; HC variable SEQ ID NO: 2, LC variable SEQ ID NO: 6 (antibody, V domains shown)
VH: EVQLQQSGAELVRPGVSVKISCKASGYEFSYYWMNWVKQRPGQGLEWIGQIYPGDGETKYNGKFKGKATLTADKSSNTAYMQLSSLTSEDSAVYFCARSHGNYLPYWGQGTLVTVSA
VL: DIVLTQSPAIMSASLGERVTMTCTASSSVSSSYLHWYQQKPGSSPKLWIYSTSNLASGVPARFSGSGSGTSYSLTISSMEAEDAATYYCHQYHRSPPTFGAGTKLELK
modifications: PA13R3-P1C4 Heavy chain variable region; PA13R3-P1C4 Light chain variable region
B3: PA13R3-P1C4 Fab: Fab fragment of chimeric PA13R3-P1C4 (antibody, V domains shown)
VH: B2 VH
VL: B2 VL

Experiments:
[1] = biological target: A139 iCAPS (human CB1, ICL3 replaced with BRIL); test: ELISA binding of IgG/Fab to CB1 iCAPS A139; details: IgG and Fab ELISA, Table 8
Experimental: Purified IgG was tested for binding to purified CB1 receptor (CB1 Conformation Antigen Presenting System (iCAPS)) by ELISA. Non-biotinylated antigens (e.g. empty iCAPS) were coated directly on Maxisorp plates. The primary antibodies were purified IgGs with 1:3 serial dilutions, incubated on the plate for 1 hour. After 3 rounds of washing with PBST, secondary antibodies HRP goat anti-mouse IgG (Abmart) or HRP goat anti-human IgG (Sigma), depending on the species of the IgGs were added and incubated for another hour. The plates were washed three times with PBST, then developed with TMB (Biopanda). HCl was added to the plates to stop the reaction. Absorbance at 450 nm was read on Emax precision microplate reader (Molecular Devices).
IgG and Fab molecules tested were 36E12B6C2 IgG, 36E12B6C2 Fab, PA13R3-P1C4 IgG, and PA13R3-P1C4 Fab, compared to negative control BRIL binder P1F7 IgG and P1F7 Fab. For IgG antibodies, the secondary antibody used to detect binding was anti-mouse IgG-HRP; for Fabs, the secondary antibody used to detect binding was anti-human IgG-HRP.

5HT2B expressing cells = biological target: T1, 5HT2B expressing cells (Homo sapiens, UniProt P41595); test: Flow cytometry selectivity versus 5HT2B; type: binding
T1 construct: expressed in transfected cells
Experimental: (§1) To further assess TRex CHO parental cells, TRex CHO A56 overexpressed CB1, Native human CB1 TRex CHO A156, 5HT2B, Mouse CB1 and human CB2 were used to examine the specificity of IgG binding. 100 μl of 1×10^6 cells/ml of cells were incubated with primary antibody IgGs in 3-fold serial dilutions starting from 1 μM to 0.5 nM for 30 minutes on ice. After being washed with 200 μl of FACS buffer twice, cells were incubated with secondary antibody for 30 minutes on ice. Cells were washed with 200 μl of FACS buffer twice and transferred to BD Falcon 5 ml tube and analyzed by FACS.
Santa Cruz anti-CB1 rabbit polyclonal antibody and secondary antibody FITC conjugated anti-rabbit were used to detect the expression of mouse CB1. R&D mouse monoclonal anti-CB2 and human IgG P2C2 were used to confirm the expression of CB2 and 5HT2B respectively. Both anti-mouse and anti-human secondary antibodies were PE-conjugated.
For selected binders, full binding curves were generated on CB1 receptor by testing a range of concentrations. Three-fold serial dilutions from 1 μM to […] were prepared. Selectivity was determined by measuring binding to cells expressing 5HT2B or CB2, relative to binding to A156 (native human CB1 receptor expressing) or A56 (overexpressed—CB1 receptor with the T210A modification and ICL3 replacement with fusion partner) by flow cytometry. As shown in FIG. 2C and FIG. 2D, the expression of CB2 and 5HT2B was confirmed using mouse monoclonal anti-CB2 and P2C2 human IgG to confirm CB2 and 5HT2B expression, respectively. PE-conjugated anti-mouse (for detection of anti-CB2) and PE conjugated anti-human antibodies were used to detect CB2 and 5HT2B, respectively.

[2] = tested on: TRex CHO parental cells (no CB1); test: Flow cytometry (FACS) binding to parental cells
Experimental: TRex CHO parental cells, TRex CHO A56 over-expressed CB1 (CB1 T210A/fusion partner), and Native human CB1 TRex CHO A156 were harvested from flasks. 100 μl of 1×10^6 cells/ml of cells were incubated with primary antibody IgGs. Secondary Antibody PE conjugated anti-human and anti-mouse was diluted in 1:200 folds. Anti-Human Fab FITC was diluted in 1:32 folds. Cells were washed with 200 μl of FACS buffer twice and transferred to BD 5 ml Falcon tube and analyzed by flow cytometry. Binding of purified IgG was initially tested at concentrations of 30 nM and 300 nM.
as §1
The binding affinity, cross-reactivity and specificity of humanized P1C4 antibodies were determined by flow cytometry with TRex CHO parental cells, TRex CHO A56 overexpressed CB1 cells (T210A/fusion partner), native human CB1 TRex CHO A156 cells, Trex parental (no CB1) cells, mouse CB1 cells, and human CB2 stable cells. […] After being washed with 200 μl of FACS buffer twice, cells were incubated with PE conjugated anti-human secondary antibody (Southern Biotech) for 30 minutes on ice. Cells were washed with 200 μl of FACS buffer twice and transferred to BD Falcon 5 ml tube and analyzed by flow cytometry (BD FACScalibur).
The binding affinity of PA13R3-P1C4 humanized variants was determined by flow cytometry using TRex CHO cells stably transfected with the CB1. TRex CHO parental cells, and TRex-CHO cells stably transfected with tetracycline inducible human CB1, human CB2 or mouse CB1 expression constructs were harvested. To determine binding of test antibodies, one hundred microliters of 1×10^6 cells/mL of cells were incubated with test antibodies with a range of concentrations between 1 μM and 1.3 nM for 30 minutes on ice. Cells were then centrifuged at 4° C. at 1600 rpm for 3 minutes; supernatant was aspirated and cells were washed with 200 μL FACS buffer. The washing procedure was repeated twice. […] Cells were washed with 200 μL FACS buffer twice and analyzed by flow cytometry (Guava). […] The mean dissociation constant (KD) of PA13R3-P1C4 humanized variants was determined by averaging at least 4 different experiments using at least 2 different batches of protein (FIG. 20A-D and Table 16).

T1 sequence (P41595 whole entry): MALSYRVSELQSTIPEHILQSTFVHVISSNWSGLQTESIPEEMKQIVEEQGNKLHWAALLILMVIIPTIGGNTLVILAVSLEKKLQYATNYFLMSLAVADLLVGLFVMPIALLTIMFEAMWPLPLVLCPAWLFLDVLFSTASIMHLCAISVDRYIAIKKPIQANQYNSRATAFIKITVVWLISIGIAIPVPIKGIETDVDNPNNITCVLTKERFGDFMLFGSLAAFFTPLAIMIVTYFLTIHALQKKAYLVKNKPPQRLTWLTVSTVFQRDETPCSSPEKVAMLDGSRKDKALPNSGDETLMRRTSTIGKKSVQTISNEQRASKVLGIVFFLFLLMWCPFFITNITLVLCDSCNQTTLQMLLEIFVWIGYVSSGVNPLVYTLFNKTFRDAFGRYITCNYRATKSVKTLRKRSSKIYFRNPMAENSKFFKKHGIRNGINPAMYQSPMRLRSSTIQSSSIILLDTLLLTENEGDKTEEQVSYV

Row | Molecule | EC50 [1] [nM] | cross-activity with 5ht2b (5HT2B expressing cells) | binding to parental TRex CHO (in words) [2] | Kd TRexCHO parental ([2]; Table 10)
1 | B1 | 0.19 | do not have cross-activity | not parental TRex CHO | 
2 | B2 | 0.17 | do not have cross-activity | not parental TRex CHO | No binding
3 | B3 | 0.27 | do not have cross-activity | not parental TRex CHO | 
